Reference: patent publication US20240360436A1 (DDBIO, published 2024)

Biological target: T1, CD40 antigen (biotin-label-free, AcroBio Cat #: CDO-H5253) (UniProt P25942 21-193)
T1 construct: Bought protein; A biotin-labeled form (CDO-H82E8) was used for panning only; also called CD40 antigens
Assay: ELISA, CD40 antigen coated, anti-flag-HRP, OD405

T1 sequence (P25942 21-193 limits assumed): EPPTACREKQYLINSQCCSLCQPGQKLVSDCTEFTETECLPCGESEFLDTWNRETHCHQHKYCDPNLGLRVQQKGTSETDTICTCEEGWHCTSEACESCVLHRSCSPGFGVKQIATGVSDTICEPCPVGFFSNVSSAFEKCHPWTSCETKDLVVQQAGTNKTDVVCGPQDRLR

| Binder | ELISA reading [OD405] |
| --- | --- |
| Selicrelumab (Fab, V domains shown, Also expressed as full-length antibody; also called #1; Positive antibody) VH: not shown VL: DIQMTQSPSSVSASVGDRVTITCRASQGIYSWLAWYQQKPGKAPNLLIYTASTLQSGVPSRFSGSGSGTDFTLTISSLQPEDFATYYCQQANIFPLTFGGGTKVEIKR | 2.92 |
| DDBK003-2 (Fab, V domains shown, Light-chain replacement clone of Selicrelumab; also expressed as full-length antibody (KLC/IgG1)) VH: not shown VL: DIQMTQSPSSVSASVGDRVTITCRATQDIRPWLAWYQQRPGKAPQLLIYRTSTLQSGVPSRFSGSGSGTDFTLTISNLQPEDFATYYCQHAKIFPITFGQGTRLEIKR | 3.15 |
| DDBK003-3 (Fab, V domains shown, Light-chain replacement clone of Selicrelumab; also expressed as KLC/IgG1) VH: not shown VL: DIQMTQSPSSVSASIGDRVTVTCRASQAIGSWVAWYQQKPGKVPKLLIYSASKIQSGVPSRFSGSGSGTDFTLTISSLQPEDFATYYCQQANSFPITFGQGTLLEIKR | 2.87 |
| DDBK003-12 (Fab, V domains shown, Heavy-chain replacement clone of Selicrelumab; also expressed as KLC/IgG1) VH: QVQLQESGPGLVKPSETLSLTCNVSGYSITRGYFWGWIRQPPGKGLEWIGSIYQSGAARYNPSLQSRVTLSVDTSKNQFSLKLTSVTAADTAVYYCARDAATQVRGSWYNGYYFDPWGQGTLVTVSS VL: DIQMTQSPSSVSASVGDRVTITCRASQGIYSWLAWYQQKPGKAPNLLIYTASTLQSGVPSRFSGSGSGTDFTLTISSLQPEDFATYYCQQANIFPLTFGGGTKVEIKR | 3.22 |
| DDBK003-13 (Fab, V domains shown, Heavy-chain replacement clone of Selicrelumab; also expressed as KLC/IgG1) VH: EVQLVQSGPGLVRPSETLSLTCSASGGSVSSASDLWGWIRQAPGKGLEWIGNIYYLGKTDYNPSLGGRVSITMDKSKNQFSLRLSSVTAADTAMYYCAKRSTLPMRGFFVSWGQGTTVTVSS VL: DIQMTQSPSSVSASVGDRVTITCRASQGIYSWLAWYQQKPGKAPNLLIYTASTLQSGVPSRFSGSGSGTDFTLTISSLQPEDFATYYCQQANIFPLTFGGGTKVEIKR | 3.33 |
| DDBK003-14 (Fab, V domains shown, Light- and heavy-chain double replacement clone of Selicrelumab; also expressed as KLC/IgG1) VH: QVQLVESGAEVKKPGSSVKVSCKASGGTFSASAISWVRQAPGQGLEWMGGIFPILGSANYAQKFQGRVTITADESTSTAYMELSSLRSEDTAVYYCARDLAGYNYGFFGYWGRGTLVTVSS VL: DIQMTQSPSSVSASVGDRVTITCRASQGINSWLAWYQQKPGRAPKLLIYTASTLQSGVPSRFSGSGSGTDFTLTISSLQPEDFATYYCQQAKSFPLTFGGGTKVEIKR | 2.02 |
| DDBK003-16 (Fab, V domains shown, Light- and heavy-chain double replacement clone of Selicrelumab; also expressed as KLC/IgG1) VH: QVQLVESGAEVKKPGSSVKVSCKASGGTFSASAISWVRQAPGQGLEWMGGIFPILGSANYAQKFQGRVTITADESTSTAYMELSSLRSEDTAVYYCARDLAGYNYGFFGYWGRGTLVTVSS VL: DIQMTQSPSSVSASVGDRVTITCRASQGISSWLAWYQQKPGKAPKLLIYAASSLQSGVPSRFSGSGSGTDFTLTISSLQPEDFATYYCQQANSFPLTFGGGTKLEIKR | 1.93 |
